Consider twelve molecules from patent publication US11180770B2, “HPPD variants and methods of use” (BASF Agricultural Solutions Seed US LLC, priority 2017, dated 2021).

This data set relates to HPPD polypeptides. Kind of data set: coupled HPPD activity assay: turnover and residual turnover in crude extracts. Format: biochemical, Pseudomonas fluorescens. Conditions: for Residual turnover [%]: 100 μM Cmpd. 1, signal change with inhibitor divided by signal change without inhibitor; for Turnover: absence of Cmpd. 1, kinetic changes in absorbance (OD) at 320 nm, 30 min; for Turnover / Residual turnover: high substrate concentration; for Residual turnover: presence of 100 μM Cmpd. 1, changes in absorbance (OD) at 320 nm.

B1: 12 (protein)
chain: MADLYENPMGLMGFEFIEFASPTPGTLEPIFEIMGFTKVATHRSKNVHLYRQGEINLILNNEPNSIASYFAAEHGPSVCGMAFRVKDSQKAYNRALELGAQPIHIDTGPMELNLPAIKGIGGAPLYLIDRFGEGSSIYDIDFVYLEGVERNPVGAGLKVIDHLTHNVYRGRMVYWANFYEKLFNFREARYFDIKGEYTGLTSKAMSAPDGMIRIPLNEESSKGAGQIEEFLMQFNGEGIQHVAFLTDDLVKTWDALKKIGMRFMTAPADNYYEMLEGRLPDHGEPVDQLQARGILLDGSSVEGDKRLLLQIFSETLMGPVFFEFIQRKGDDGFGPDSFKVLFESVERDQVRRGVLTAD
modifications: mutant HPPD polypeptide
In the case of B1, the “Residual turnover [%]” value came to 50%, the Turnover was 0.115 and the Residual turnover was determined as 0.058.

B2: 16 (protein)
chain: MADLYENPMGLMGFEFIEFASPTPGTLEPIFEIMGFTKVATHRSKNVHLYRQGEINLILNNEPNSIASYFAAEHGPSVCGMAFRVKDSQKAYNRALELGAQPIHIDTGPMELNLPAIKGIGGAPLYLIDRFGEGSSIYDIDFVYLEGVERNPVGAGLKVIDHLTHNVYRGRMVYWANFYEKLFNFREARYFDIKGEYTGLTSKAMSAPDGMIRIPLNEESSKGAGQIEEFLMQFNGEGIQHVAFLTDDLVKTWDALKKIGMRFMTAPSDNYYEMLEGRLPDHGEPVDQLQARGILLDGSSVEGDKRLLLQIFSETLMGPVFFEFIQRKGDDGFGPDSFKVLFESVERDQVRRGVLTAD
modifications: mutant HPPD polypeptide
Consider B2, for which the “Residual turnover [%]” value amounted to 46%, the Turnover is listed as 0.181 and the Residual turnover worked out at 0.083.

B3: 22 (protein)
chain: MADLYENPMGLMGFEFIEFASPTPGTLEPIFEIMGFTKVATHRSKNVHLYRQGEINLILNNEPNSIASYFAAEHGPSVCGMAFRVKDSQKAYNRALELGAQPIHIDTGPMELNLPAIKGIGGAPLYLIDRFGEGSSIYDIDFVYLEGVERNPVGAGLKVIDHLTHNVYRGRMVYWANFYEKLFNFREARYFDIKGEYTGLTSKAMSAPDGMIRIPLNEESSKGAGQIEEFLMQFNGEGIQHVAFLTDDLVKTWDALKKIGMRFMTAPGDTYYEMLEGRLPDHGEPVDQLQARGILLDGSSVEGDKRLLLQIFSETLMGPVFFEFIQRKGDDGFGPDSFKVLFEQVERDQVRRGVLTAD
modifications: mutant HPPD polypeptide
Consider B3, for which the “Residual turnover [%]” value stood at 47%, the Turnover is listed as 0.132 and the Residual turnover is 0.062.

B4: 20 (protein)
chain: MADLYENPMGLMGFEFIEFASPTPGTLEPIFEIMGFTKVATHRSKNVHLYRQGEINLILNNEPNSIASYFAAEHGPSVCGMAFRVKDSQKAYNRALELGAQPIHIDTGPMELNLPAIKGIGGAPLYLIDRFGEGSSIYDIDFVYLEGVERNPVGAGLKVIDHLTHNVYRGRMVYWANFYEKLFNFREARYFDIKGEYTGLTSKAMSAPDGMIRIPLNEESSKGAGQIEEFLMQFNGEGIQHVAFLTDDLVKTWDALKKIGMRFMTAPSDEYYEMLEGRLPDHGEPVDQLQARGILLDGSSVEGDKRLLLQIFSETLMGPVFFEFIQRKGDDGFGPDSFKVLFESVERDQVRRGVLTAD
modifications: mutant HPPD polypeptide
Consider B4, for which the “Residual turnover [%]” value came out at 53%, the Turnover is given as 0.199 and the Residual turnover came out at 0.105.

B5: 23 (protein)
chain: MADLYENPMGLMGFEFIEFASPTPGTLEPIFEIMGFTKVATHRSKNVHLYRQGEINLILNNEPNSIASYFAAEHGPSVCGMAFRVKDSQKAYNRALELGAQPIHIDTGPMELNLPAIKGIGGAPLYLIDRFGEGSSIYDIDFVYLEGVERNPVGAGLKVIDHLTHNVYRGRMVYWANFYEKLFNFREARYFDIKGEYTGLTSKAMSAPDGMIRIPLNEESSKGAGQIEEFLMQFNGEGIQHVAFLTDDLVKTWDALKKIGMRFMTAPPDTYYEMLEGRLPDHGEPVDQLQARGILLDGSSVEGDKRLLLQIFSETLMGPVFFEFIQRKGDDGFGPDSFKVLFEQVERDQVRRGVLTAD
modifications: mutant HPPD polypeptide
For B5, the “Residual turnover [%]” value is 39%, the Turnover was 0.193 and the Residual turnover worked out at 0.076.

B6: 17 (protein)
chain: MADLYENPMGLMGFEFIEFASPTPGTLEPIFEIMGFTKVATHRSKNVHLYRQGEINLILNNEPNSIASYFAAEHGPSVCGMAFRVKDSQKAYNRALELGAQPIHIDTGPMELNLPAIKGIGGAPLYLIDRFGEGSSIYDIDFVYLEGVERNPVGAGLKVIDHLTHNVYRGRMVYWANFYEKLFNFREARYFDIKGEYTGLTSKAMSAPDGMIRIPLNEESSKGAGQIEEFLMQFNGEGIQHVAFLTDDLVKTWDALKKIGMRFMTAPADEYYEMLEGRLPDHGEPVDQLQARGILLDGSSVEGDKRLLLQIFSETLMGPVFFEFIQRKGDDGFGPDSFKVLFESVERDQVRRGVLTAD
modifications: mutant HPPD polypeptide
Regarding B6, the “Residual turnover [%]” value stood at 59%, the Turnover is 0.138 and the Residual turnover was found to be 0.081.

B7: 14 (protein)
chain: MADLYENPMGLMGFEFIEFASPTPGTLEPIFEIMGFTKVATHRSKNVHLYRQGEINLILNNEPNSIASYFAAEHGPSVCGMAFRVKDSQKAYNRALELGAQPIHIDTGPMELNLPAIKGIGGAPLYLIDRFGEGSSIYDIDFVYLEGVERNPVGAGLKVIDHLTHNVYRGRMVYWANFYEKLFNFREARYFDIKGEYTGLTSKAMSAPDGMIRIPLNEESSKGAGQIEEFLMQFNGEGIQHVAFLTDDLVKTWDALKKIGMRFMTAPPDNYYEMLEGRLPDHGEPVDQLQARGILLDGSSVEGDKRLLLQIFSETLMGPVFFEFIQRKGDDGFGPDSFKVLFESVERDQVRRGVLTAD
modifications: mutant HPPD polypeptide
On to B7, for which the “Residual turnover [%]” value is on record as 33%, the Turnover was found to be 0.188 and the Residual turnover is given as 0.062.

B8: 13 (protein)
chain: MADLYENPMGLMGFEFIEFASPTPGTLEPIFEIMGFTKVATHRSKNVHLYRQGEINLILNNEPNSIASYFAAEHGPSVCGMAFRVKDSQKAYNRALELGAQPIHIDTGPMELNLPAIKGIGGAPLYLIDRFGEGSSIYDIDFVYLEGVERNPVGAGLKVIDHLTHNVYRGRMVYWANFYEKLFNFREARYFDIKGEYTGLTSKAMSAPDGMIRIPLNEESSKGAGQIEEFLMQFNGEGIQHVAFLTDDLVKTWDALKKIGMRFMTAPGDNYYEMLEGRLPDHGEPVDQLQARGILLDGSSVEGDKRLLLQIFSETLMGPVFFEFIQRKGDDGFGPDSFKVLFESVERDQVRRGVLTAD
modifications: mutant HPPD polypeptide
For B8, the Turnover came to 0.024.

B9: 19 (protein)
chain: MADLYENPMGLMGFEFIEFASPTPGTLEPIFEIMGFTKVATHRSKNVHLYRQGEINLILNNEPNSIASYFAAEHGPSVCGMAFRVKDSQKAYNRALELGAQPIHIDTGPMELNLPAIKGIGGAPLYLIDRFGEGSSIYDIDFVYLEGVERNPVGAGLKVIDHLTHNVYRGRMVYWANFYEKLFNFREARYFDIKGEYTGLTSKAMSAPDGMIRIPLNEESSKGAGQIEEFLMQFNGEGIQHVAFLTDDLVKTWDALKKIGMRFMTAPRDEYYEMLEGRLPDHGEPVDQLQARGILLDGSSVEGDKRLLLQIFSETLMGPVFFEFIQRKGDDGFGPDSFKVLFESVERDQVRRGVLTAD
modifications: mutant HPPD polypeptide
On to B9, for which the “Residual turnover [%]” value came out at 45%, the Turnover is recorded as 0.141 and the Residual turnover is reported as 0.063.

B10: 15 (protein)
chain: MADLYENPMGLMGFEFIEFASPTPGTLEPIFEIMGFTKVATHRSKNVHLYRQGEINLILNNEPNSIASYFAAEHGPSVCGMAFRVKDSQKAYNRALELGAQPIHIDTGPMELNLPAIKGIGGAPLYLIDRFGEGSSIYDIDFVYLEGVERNPVGAGLKVIDHLTHNVYRGRMVYWANFYEKLFNFREARYFDIKGEYTGLTSKAMSAPDGMIRIPLNEESSKGAGQIEEFLMQFNGEGIQHVAFLTDDLVKTWDALKKIGMRFMTAPRDNYYEMLEGRLPDHGEPVDQLQARGILLDGSSVEGDKRLLLQIFSETLMGPVFFEFIQRKGDDGFGPDSFKVLFESVERDQVRRGVLTAD
modifications: mutant HPPD polypeptide
Take B10: the Turnover was 0.040 and the Residual turnover stood at 0.030.

B11: 18 (protein)
chain: MADLYENPMGLMGFEFIEFASPTPGTLEPIFEIMGFTKVATHRSKNVHLYRQGEINLILNNEPNSIASYFAAEHGPSVCGMAFRVKDSQKAYNRALELGAQPIHIDTGPMELNLPAIKGIGGAPLYLIDRFGEGSSIYDIDFVYLEGVERNPVGAGLKVIDHLTHNVYRGRMVYWANFYEKLFNFREARYFDIKGEYTGLTSKAMSAPDGMIRIPLNEESSKGAGQIEEFLMQFNGEGIQHVAFLTDDLVKTWDALKKIGMRFMTAPPDEYYEMLEGRLPDHGEPVDQLQARGILLDGSSVEGDKRLLLQIFSETLMGPVFFEFIQRKGDDGFGPDSFKVLFESVERDQVRRGVLTAD
modifications: mutant HPPD polypeptide
With B11, the “Residual turnover [%]” value was 43%, the Turnover worked out at 0.134 and the Residual turnover is on record as 0.057.

B12: 21 (protein)
chain: MADLYENPMGLMGFEFIEFASPTPGTLEPIFEIMGFTKVATHRSKNVHLYRQGEINLILNNEPNSIASYFAAEHGPSVCGMAFRVKDSQKAYNRALELGAQPIHIDTGPMELNLPAIKGIGGAPLYLIDRFGEGSSIYDIDFVYLEGVERNPVGAGLKVIDHLTHNVYRGRMVYWANFYEKLFNFREARYFDIKGEYTGLTSKAMSAPDGMIRIPLNEESSKGAGQIEEFLMQFNGEGIQHVAFLTDDLVKTWDALKKIGMRFMTAPADTYYEMLEGRLPDHGEPVDQLQARGILLDGSSVEGDKRLLLQIFSETLMGPVFFEFIQRKGDDGFGPDSFKVLFEQVERDQVRRGVLTAD
modifications: mutant HPPD polypeptide
In the case of B12, the “Residual turnover [%]” value was 51%, the Turnover came out at 0.157 and the Residual turnover stood at 0.080.
